Measured values published in PMC10825690 (2023).

Target: acetylated bovine serum albumin (AcBSA) (Bos taurus, UniProt P02769)
Assay: microscale thermophoresis

acetylated bovine serum albumin (AcBSA), sequence (P02769 25-607): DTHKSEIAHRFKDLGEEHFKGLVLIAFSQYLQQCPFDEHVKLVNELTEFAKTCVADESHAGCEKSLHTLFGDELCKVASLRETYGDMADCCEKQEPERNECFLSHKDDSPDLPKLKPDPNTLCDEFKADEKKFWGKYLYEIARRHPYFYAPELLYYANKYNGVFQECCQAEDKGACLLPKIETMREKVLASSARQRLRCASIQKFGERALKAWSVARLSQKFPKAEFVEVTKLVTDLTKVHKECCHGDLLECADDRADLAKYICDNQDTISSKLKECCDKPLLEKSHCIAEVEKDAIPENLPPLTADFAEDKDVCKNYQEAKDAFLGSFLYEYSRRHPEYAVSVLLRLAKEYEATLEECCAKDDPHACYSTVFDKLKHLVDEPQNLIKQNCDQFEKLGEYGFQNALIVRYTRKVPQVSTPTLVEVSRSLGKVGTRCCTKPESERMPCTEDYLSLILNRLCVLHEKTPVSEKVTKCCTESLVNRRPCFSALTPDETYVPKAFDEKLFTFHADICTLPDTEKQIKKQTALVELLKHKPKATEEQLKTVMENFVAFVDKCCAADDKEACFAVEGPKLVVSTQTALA

Kd: 53 nM
B1: FIBCD1 236-461 (protein)
chain: ATGSRPRDCLDVLLSGQQDDGVYSVFPTHYPAGFQVYCDMRTDGGGWTVFQRREDGSVNFFRGWDAYRDGFGRLTGEHWLGLKRIHALTTQAAYELHVDLEDFENGTAYARYGSFGVGLFSVDPEEDGYPLTVADYSGTAGDSLLKHSGMRFTTKDRDSDHSENNCAAFYRGAWWYRNCHTSNLNGQYLRGAHASYADGVEWSSWTGWQYSLKFSEMKIRPVREDR
modifications: acetylated BSA, RED-NHS labeled FIBCD1, calcium
